Measurements taken from patent US20040141994.

Molecular target: UL12 alkaline nuclease (Herpes simplex virus 1) (UniProt P04294)
Assay: cleavage_in_vitro
Conditions: optimal nuclease conditions; 0.06 at strand exchange conditions (pH 7.5, 1 mM MgCl2, 40 mM NaCl, 37 C)

Sequence of UL12 alkaline nuclease (Herpes simplex virus 1) (P04294 whole entry): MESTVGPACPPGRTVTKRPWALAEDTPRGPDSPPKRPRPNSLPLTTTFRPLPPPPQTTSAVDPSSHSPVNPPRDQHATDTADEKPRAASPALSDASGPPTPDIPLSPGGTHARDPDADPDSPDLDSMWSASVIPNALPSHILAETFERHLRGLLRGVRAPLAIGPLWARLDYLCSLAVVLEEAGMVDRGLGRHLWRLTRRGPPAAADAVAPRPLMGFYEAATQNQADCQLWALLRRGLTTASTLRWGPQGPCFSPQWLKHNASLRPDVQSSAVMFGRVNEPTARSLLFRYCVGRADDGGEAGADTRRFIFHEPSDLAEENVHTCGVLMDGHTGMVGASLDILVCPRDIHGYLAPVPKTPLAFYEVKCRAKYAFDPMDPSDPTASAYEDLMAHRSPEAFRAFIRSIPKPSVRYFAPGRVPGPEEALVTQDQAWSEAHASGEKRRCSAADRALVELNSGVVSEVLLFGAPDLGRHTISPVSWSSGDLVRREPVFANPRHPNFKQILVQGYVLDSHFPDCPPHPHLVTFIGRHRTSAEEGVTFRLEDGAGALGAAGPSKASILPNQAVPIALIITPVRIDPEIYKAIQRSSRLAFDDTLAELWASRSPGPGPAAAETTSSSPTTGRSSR

E. coli chromosomal DNA
activity (ng DNA/min/ng protein): 0.2
